From US20220033501A1 (SHANGHAI PHARMAEXPLORER, published 2022)

T1: monkey TIM-3 on CHOK1 stable cell line (CHOK1-cTIM-3) (monkey)
T1 chain: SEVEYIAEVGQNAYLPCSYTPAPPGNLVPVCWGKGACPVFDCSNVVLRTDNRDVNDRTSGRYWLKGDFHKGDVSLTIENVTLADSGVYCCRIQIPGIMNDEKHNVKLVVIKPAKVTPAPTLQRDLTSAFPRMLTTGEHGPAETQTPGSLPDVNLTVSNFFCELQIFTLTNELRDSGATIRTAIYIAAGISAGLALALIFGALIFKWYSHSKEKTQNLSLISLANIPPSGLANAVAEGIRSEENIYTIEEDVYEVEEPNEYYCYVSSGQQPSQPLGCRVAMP

T2: human TIM-3 on CHOK1 stable cell line (CHOK1-hTIM-3) (human, UniProt Q8TDQ0 22-301)
T2 sequence: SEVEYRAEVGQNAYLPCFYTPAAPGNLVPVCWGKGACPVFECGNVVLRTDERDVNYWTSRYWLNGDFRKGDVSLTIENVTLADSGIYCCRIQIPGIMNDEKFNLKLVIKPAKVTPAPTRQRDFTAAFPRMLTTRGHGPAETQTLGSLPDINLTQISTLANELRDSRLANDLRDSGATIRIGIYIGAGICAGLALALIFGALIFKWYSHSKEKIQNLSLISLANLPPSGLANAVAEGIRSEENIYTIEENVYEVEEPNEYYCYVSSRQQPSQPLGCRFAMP

T3: murine TIM-3 extracellular domain protein with hFc tag (mTIM-3-hFc) (mouse, UniProt Q8VIM0 29-191)
T3 construct: also called mouse TIM-3 extracellular domain protein; not shown: human IgG Fc fragment (hFc) of the pCpC vector
T3 chain: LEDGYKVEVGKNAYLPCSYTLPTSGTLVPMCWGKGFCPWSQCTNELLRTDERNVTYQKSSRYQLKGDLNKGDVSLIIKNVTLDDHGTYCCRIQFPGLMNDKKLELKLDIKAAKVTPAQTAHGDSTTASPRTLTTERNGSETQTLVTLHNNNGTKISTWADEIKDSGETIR

T4: murine TIM-3 protein with hFc tag (mTIM-3-hFc protein) (mouse; human, UniProt Q8VIM0 29-191)
T4 construct: Made in HEK293 cells; also called mouse TIM-3 extracellular domain protein; not shown: human IgG Fc fragment (hFc) of the pCpC vector
T4 chain: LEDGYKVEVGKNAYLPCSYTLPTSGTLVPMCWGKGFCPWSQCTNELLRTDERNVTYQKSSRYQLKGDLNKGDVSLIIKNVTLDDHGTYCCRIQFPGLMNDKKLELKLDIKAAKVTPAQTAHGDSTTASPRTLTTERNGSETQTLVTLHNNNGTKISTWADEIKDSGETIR

T5: human TIM-3 protein with hFc tag (hTIM-3-hFc protein) (human, UniProt Q8TDQ0 22-200)
T5 construct: also called immunogen 1; human TIM-3 extracellular domain protein; not shown: human IgG Fc fragment (hFc) of the pCpC vector
T5 sequence: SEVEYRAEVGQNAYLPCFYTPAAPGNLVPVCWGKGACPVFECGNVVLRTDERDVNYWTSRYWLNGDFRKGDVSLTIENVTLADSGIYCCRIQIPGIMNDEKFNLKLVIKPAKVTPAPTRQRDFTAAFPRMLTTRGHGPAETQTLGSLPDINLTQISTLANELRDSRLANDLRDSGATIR

T6: monkey TIM-3 protein with hFc tag (cTIM-3-hFc protein) (monkey; human)
T6 construct: Made in HEK293 cells; also called monkey TIM-3 extracellular domain protein; not shown: human IgG Fc fragment (hFc) of the pCpC vector
T6 chain: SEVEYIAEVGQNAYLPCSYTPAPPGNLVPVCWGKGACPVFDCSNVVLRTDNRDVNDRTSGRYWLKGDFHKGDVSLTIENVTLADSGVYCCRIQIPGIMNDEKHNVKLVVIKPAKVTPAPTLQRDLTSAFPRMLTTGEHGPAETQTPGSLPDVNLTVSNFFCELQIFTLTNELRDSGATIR


Experiments:
[1] = molecular target: T1, monkey TIM-3 on CHOK1 stable cell line …; assay: FACS, CHOK1-cTIM-3 cells, 8 nM antibody
[2] = molecular target: T2, human TIM-3 on CHOK1 stable cell line …; assay: FACS, CHOK1-hTIM-3 cells, 1.6 nM antibody
[3] = molecular target: T3, murine TIM-3 extracellular domain …; assay: ELISA, coated mouse TIM-3 ECD protein, 0.0001 nM antibody
[4] = molecular target: T3, murine TIM-3 extracellular domain …; assay: ELISA, coated mouse TIM-3 ECD protein, 0.0007 nM antibody
[5] = molecular target: T4, murine TIM-3 protein with hFc tag …; assay: ELISA, coated mTIM-3-hFc
[6] = molecular target: T5, human TIM-3 protein with hFc tag …; assay: ELISA, coated hTIM-3-hFc; antibody 0.0001 nM
Description: (§1) The amino acid sequence 22-200 of the extracellular domain of the human TIM-3 protein described in the step of Example 1 (as shown in SEQ ID NO. 71 in the sequence listing) was cloned into a pCpC vector having a human IgG Fc fragment (hFc), and transfected into HEK293 cells. The cell culture medium was collected, and purified to obtain the human TIM-3 protein with hFc tag (herein referred to as hTIM-3-hFc protein). The amino acid sequence 22-201 of the extracellular domain of the monkey TIM-3 protein (as shown in SEQ ID NO. 72 in the sequence listing) was cloned into a pCpC vector having a human IgG Fc fragment (hFc), and transfected into HEK293 cells. The cell culture medium was collected, and purified to obtain the monkey TIM-3 protein with hFc tag (herein referred to as cTIM-3-hFc protein). […] The cell culture medium was collected, and purified to obtain the murine TIM-3 protein with hFc tag (herein referred to as mTIM-3-hFc protein). Purified human, monkey, and mouse TIM-3 extracellular domain proteins (hTIM-3-hFc, cTIM-3-hFc, and mTIM-3-hFc) were diluted with PBS to a final concentration of 1.0 μg/ml and then added to a 96-well ELISA plate with 100 μl per well. The plate was sealed with plastic film and incubated overnight at 4° C. The plate was washed 4 times with the plate washing solution (PBS+0.01% Tween20) on the next day, and added with the blocking solution (PBS+0.01% Tween20+1% BSA) and sealed at room temperature for 1-2 hours. The blocking solution was poured out. 50-100 μl of the antibody sample to be tested was added to each well. The plate was incubated at 37° C. for 1-2 hours, and washed 2-3 times with plate washing solution (PBS+0. 01% Tween20). HRP (horseradish peroxidase) labeled secondary antibody was added. The plate was incubated at 37° C. for 1-2 hours, and washed 2-3 times with plate washing solution (PBS+0. 01% Tween20). […] of TMB substrate was added to each well. After incubated at room temperature for 15-30 minutes, the plate was added with […] stop solution (1.0N HCl) to each well. An ELISA plate reader (TiterMax 384plus, Molecular Device) was used to read the A450 nm value.

[7] = molecular target: T6, monkey TIM-3 protein with hFc tag …; assay: ELISA, coated cTIM-3-hFc; antibody 0.0007 nM
Description: as §1

[8] = molecular target: T4, murine TIM-3 protein with hFc tag …; assay: ELISA, coated mTIM-3-hFc; antibody 66.667 nM
Description: as §1

Row | Binder | Mean fluorescence intensity [1] | Mean fluorescence intensity [2] | OD450 [3] | OD450 [4] | binding result [5] | OD450 [6] | OD450 [7] | OD450 [8]
1 | 57F4E5 fully human TIM-3 antibody (human IgG4, kappa) (antibody, V domains shown) VH: EVQLVESGGGLVQPGGSLRLSCAASGFTFSSYWMSWVRQAPGKGLEWVANIKQDGSEKYYVDSVKGRFTISRDSAKNSLYLQMNSLRAEDTAMYFCARDSNFFDYWGQGTLVTVSS VL: ETVMTQSPATLSVSPGERATLSCRASQSVSSNLAWYQRKPGQAPRLLIYFSSTRATGIPARFSGSGSGTEFTLTISSLQSEDFAVYYCQQYNNWPLTFGGGTKVEIK | 259 | 156 | 0.24 | 0.23 |  |  |  | 
2 | 134H3G6 fully human TIM-3 antibody (human IgG4, kappa) (antibody, V domains shown) VH: EVQLVESGGGLVQPGGSLRLSCAASGFTFSNSWMTWVRQAPGKGLEWVANIKQAGTEKYYVDSVKGRFTISRDNAKNSLYLQMNSLRAEDTAVYYCNSGSNYFDYWGQGTLVTVSS VL: EIVMTQSPATLSVSPGERATLSCRARQNFYSNLAWYQQKPGQAPRLLIYGASTRATGIPARFSGSGSGTEFTLTISSLQSEDFAVYYCQQYNNWPLTFGGGTKVEIK | 401 | 207 | 0.22 | 0.21 |  |  |  | 
3 | 215A8F2 fully human TIM-3 antibody (human IgG4, kappa) (antibody, V domains shown) VH: QVQLQQWGAGLLKPSETLSLTCTVYGGSFSGYYWNWIRQPPGKGLEWLGEINHSGSTNYNPSLKRRVTISVDTSKNQFSLKLSSVTAADTAVYYCARVYYYGPFDFWGQGTLVTVSS VL: not shown | 362 | 235 | 0.21 | 0.21 |  |  |  | 
4 | 18D2H2 (TIM-3 antibody purified from hybridoma, chimeric antibody of Example 2) (antibody, V domains shown, From hybridoma of Harbour H2L2 transgenic mice: human variable regions, rat constant regions) VH: EVQLVESGGDLVQPGGSLRLSCAASGFTFSTYWMTWVRQAPGRGLEWVANIKQDGSAKYYVDSVKGRFTLSRDDAKNSLYLQMNSLRAEDTAVYYCARGSNWFDYWGQGTLVTVSS VL: ETVMTQSPATLSVSPGERATLSCRANQNVYSNLAWYQQKPGQAPRLLIYDASTRATGFPARFSGSGSGTEFTLTISSLQSEDFAVYYCQQYNNWPLTFGGGTKVEIK |  |  |  |  | no binding (tested: 66.667 nM) | 0.12 | 0.54 | 0.85
5 | 34B6D8 (TIM-3 antibody purified from hybridoma, chimeric antibody of Example 2) (antibody, V domains shown, From hybridoma of Harbour H2L2 transgenic mice: human variable regions, rat constant regions) VH: EVQLVESGGGLVQPGGSLRLSCAASGFTFSTYWMTWVRQAPGKRLEWVANIKQGGGDKYYVDSVKGRFTISTDNAKNSLYLQMNSLRAEDTAVYYCARGSNWFDPWGQGTLVTVSS VL: EIVMTQSPATLSMSPGERATLSCRASQSVYDNLAWYQQKPGQAPRLLIYGASTRATGIPARFSGSGSGTEFTLTISSLQSEDFALYYCQQYTHWPITFGQGTRLEIK |  |  |  |  | no binding (tested: 66.667 nM) | 0.12 | 0.61 | 1.1
6 | 39E5H1 (TIM-3 antibody purified from hybridoma, chimeric antibody of Example 2) (antibody, V domains shown, From hybridoma of Harbour H2L2 transgenic mice: human variable regions, rat constant regions) VH: EVQLVESGGGLVQPGGSLRLSCAASGFTFSSYWMSWVRQAPGKGLEWVANIKRGGSERYYVDSVKGRFTISGDNAKNSVYLQMNSLRAEDTAVYYCARGSNWFDPWGQGTLVTVSS VL: ETVMTQSPAILSVSPGERATLSCRASQSVYSNLAWYQQKLGQAPRLLIYDASTRATGIPARFSGSGSGTEFTLTISSLQSEDFAVYYCQQYNNWPITFGQGTRLEIK |  |  |  |  | no binding (tested: 66.667 nM) | 0.13 | 0.61 | 0.9
7 | 57F4E5 (TIM-3 antibody purified from hybridoma, chimeric antibody of Example 2) (antibody, V domains shown, From hybridoma of Harbour H2L2 transgenic mice: human variable regions, rat constant regions) VH: EVQLVESGGGLVQPGGSLRLSCAASGFTFSSYWMSWVRQAPGKGLEWVANIKQDGSEKYYVDSVKGRFTISRDSAKNSLYLQMNSLRAEDTAMYFCARDSNFFDYWGQGTLVTVSS VL: ETVMTQSPATLSVSPGERATLSCRASQSVSSNLAWYQRKPGQAPRLLIYFSSTRATGIPARFSGSGSGTEFTLTISSLQSEDFAVYYCQQYNNWPLTFGGGTKVEIK |  |  |  |  | no binding (tested: 66.667 nM) | 0.13 | 0.64 | 0.74
8 | 134H3G6 (TIM-3 antibody purified from hybridoma, chimeric antibody of Example 2) (antibody, V domains shown, From hybridoma of Harbour H2L2 transgenic mice: human variable regions, rat constant regions) VH: EVQLVESGGGLVQPGGSLRLSCAASGFTFSNSWMTWVRQAPGKGLEWVANIKQAGTEKYYVDSVKGRFTISRDNAKNSLYLQMNSLRAEDTAVYYCNSGSNYFDYWGQGTLVTVSS VL: EIVMTQSPATLSVSPGERATLSCRARQNFYSNLAWYQQKPGQAPRLLIYGASTRATGIPARFSGSGSGTEFTLTISSLQSEDFAVYYCQQYNNWPLTFGGGTKVEIK |  |  |  |  | no binding (tested: 66.667 nM) | 0.12 | 0.55 | 0.7
9 | 215A8F2 (TIM-3 antibody purified from hybridoma, chimeric antibody of Example 2) (antibody, V domains shown, From hybridoma of Harbour H2L2 transgenic mice: human variable regions, rat constant regions) VH: QVQLQQWGAGLLKPSETLSLTCTVYGGSFSGYYWNWIRQPPGKGLEWLGEINHSGSTNYNPSLKRRVTISVDTSKNQFSLKLSSVTAADTAVYYCARVYYYGPFDFWGQGTLVTVSS VL: not shown |  |  |  |  | no binding (tested: 66.667 nM) | 0.12 | 0.55 | 0.77
10 | 7A4F10 (TIM-3 antibody purified from hybridoma, chimeric antibody of Example 2) (antibody, V domains shown, From hybridoma of Harbour H2L2 transgenic mice: human variable regions, rat constant regions) VH: EVQLLESGGGLVQPGGSLRLSCAASGFTFRTHLISWVRQAPGKGLEWVAAITGSGGSTYYADSVKGRFIISRDNSKNTLFLQMNSLRAEDTAVYYCAKDGGSGSYDDFWGQGTLVTVSS VL: ETVLTQSPVTLSLSPGERATLSCRASQSVGSYLAWYQQKPGQAPRLLIYDASNRATGIPARFSGSGSGTDFTLTISSLEPEDFAVYYCQQRSNWPPTFGQGTKVEIK |  |  |  |  | no binding (tested: 66.667 nM) | 0.12 | 0.55 | 0.66
